Experimental data taken from patent US6585979.

Key:
[1] = molecular target: MN-rgp120 (herpes simplex virus type 1; HIV-1, MN strain); test: capture ELISA, MAb at 2 ug/ml (reference)
[2] = molecular target: rgp120 from breakthrough virus clone C17.1 (herpes simplex virus type 1; HIV-1, breakthrough virus of vaccinee C17); test: capture ELISA, MAb at 2 ug/ml
[3] = molecular target: rgp120 from breakthrough virus clone C15.3 (herpes simplex virus type 1; HIV-1, breakthrough virus of vaccinee C15); test: capture ELISA, MAb at 2 ug/ml
[4] = molecular target: rgp120 from breakthrough virus clone C8.3 (herpes simplex virus type 1; HIV-1, breakthrough virus of vaccinee C8); test: capture ELISA, MAb at 2 ug/ml
[5] = molecular target: rgp120 from breakthrough virus clone C11.5 (herpes simplex virus type 1; HIV-1, breakthrough virus of vaccinee C11); test: capture ELISA, MAb at 2 ug/ml
[6] = molecular target: rgp120 from breakthrough virus clone C6.5 (herpes simplex virus type 1; HIV-1, breakthrough virus of vaccinee C6); test: capture ELISA, MAb at 2 ug/ml
[7] = molecular target: rgp120 from breakthrough virus clone C11.7 (herpes simplex virus type 1; HIV-1, breakthrough virus of vaccinee C11); test: capture ELISA, MAb at 2 ug/ml
[8] = molecular target: rgp120 from breakthrough virus clone C10.7 (herpes simplex virus type 1; HIV-1, breakthrough virus of vaccinee C10); test: capture ELISA, MAb at 2 ug/ml
[9] = molecular target: rgp120 from breakthrough virus clone C8.6 (herpes simplex virus type 1; HIV-1, breakthrough virus of vaccinee C8); test: capture ELISA, MAb at 2 ug/ml
[10] = molecular target: rgp120 from breakthrough virus clone C15.2 (herpes simplex virus type 1; HIV-1, breakthrough virus of vaccinee C15); test: capture ELISA, MAb at 2 ug/ml
[11] = molecular target: rgp120 from breakthrough virus clone C6.1 (herpes simplex virus type 1; HIV-1, breakthrough virus of vaccinee C6); test: capture ELISA, MAb at 2 ug/ml
[12] = molecular target: rgp120 from breakthrough virus clone C10.5 (herpes simplex virus type 1; HIV-1, breakthrough virus of vaccinee C10); test: capture ELISA, MAb at 2 ug/ml
[13] = molecular target: rgp120 from breakthrough virus clone C7.2 (herpes simplex virus type 1; HIV-1, breakthrough virus of vaccinee C7); test: capture ELISA, MAb at 2 ug/ml
[14] = molecular target: rgp120 from breakthrough virus clone C17.3 (herpes simplex virus type 1; HIV-1, breakthrough virus of vaccinee C17); test: capture ELISA, MAb at 2 ug/ml
[15] = molecular target: MN-rgp120 (herpes simplex virus type 1; HIV-1, MN strain); test: capture ELISA (FIG. 5C)

MAb 15e (antibody)
relative reactivity (OD ratio to MN-rgp120) [1]: 1 | relative reactivity (OD ratio to MN-rgp120) [2]: 0.33 | relative reactivity (OD ratio to MN-rgp120) [3]: 0.63 | relative reactivity (OD ratio to MN-rgp120) [4]: 0.38 | relative reactivity (OD ratio to MN-rgp120) [5]: 0.17 | relative reactivity (OD ratio to MN-rgp120) [6]: 0.75 | relative reactivity (OD ratio to MN-rgp120) [7]: 0.17 | relative reactivity (OD ratio to MN-rgp120) [8]: 0.5 | relative reactivity (OD ratio to MN-rgp120) [9]: 0.29 | relative reactivity (OD ratio to MN-rgp120) [10]: 0.92 | relative reactivity (OD ratio to MN-rgp120) [11]: 0.17 | relative reactivity (OD ratio to MN-rgp120) [12]: 0.46 | relative reactivity (OD ratio to MN-rgp120) [13]: 0.71 | relative reactivity (OD ratio to MN-rgp120) [14]: 0.33

MAb 50.1 (antibody)
fold greater binding than to any of the breakthrough virus envelope proteins [15]: 10 fold | relative reactivity (OD ratio to MN-rgp120) [1]: 1 | relative reactivity (OD ratio to MN-rgp120) [2]: 0.52 | relative reactivity (OD ratio to MN-rgp120) [3]: 0.37 | relative reactivity (OD ratio to MN-rgp120) [4]: 0.37 | relative reactivity (OD ratio to MN-rgp120) [5]: 0 | relative reactivity (OD ratio to MN-rgp120) [6]: 0.33 | relative reactivity (OD ratio to MN-rgp120) [7]: 0 | relative reactivity (OD ratio to MN-rgp120) [8]: 0.48 | relative reactivity (OD ratio to MN-rgp120) [9]: 0.34 | relative reactivity (OD ratio to MN-rgp120) [10]: 0.47 | relative reactivity (OD ratio to MN-rgp120) [11]: 0.37 | relative reactivity (OD ratio to MN-rgp120) [12]: 0.4 | relative reactivity (OD ratio to MN-rgp120) [13]: 0.6 | relative reactivity (OD ratio to MN-rgp120) [14]: 0.56
